Source: the DeepSol protein solubility set

Assay: soluble on expression in E. coli; label from the status in PepcDB or PDB records

Row | Sequence | soluble on expression in E. coli
1 | MGSDKIHHHHHHMTTQAKQPSRFDRNPLASENERLILDIVRRHGPIARSVITTHTNLTQQSVHRLIEGLIERGLLRTGAPLKGARGQPSPTIELAVESVASLGISINTDSAIICLADFSCGVIAQKKLELLPLSREATLVSLSRTLDEMLEAHNLPRDRLLGLGFAMSGFSVADDRIFNAPEPLQDWSLMDLRPILEQTFQLPVWQENNATTGAIGESLQGVGRWCQTFAYLSFNYGFGGGLILNGQPFYGFHGNAAELSGIYDPTEAPRRPALQYLLRSLQDHGIEIDSVDTLYRTFDPGWPGVEAWLEATMPQVERLVAVLIAVIDPQAIVFGGQLPPALGAMMIERCPMPSQRVHRYGVGPKEARLVLSEVKGDAAVIGAALLPLKMRYFI | not soluble
2 | MGSDKIHHHHHHMTTSEAPQCPYHLKQSLTRRPTAGARPSAAIEVDGNGIYRIHAFQAARDILRSNSVRQAGFMSESARGVRGLGNPPVLFEEGEKHHEMRRSTARYFTPTQVAEYQPMIAALADDLIAELIRRGEMNLDDLSLRLAVNVAARVVGLTSSRVPGLERRVISFVESGGDSEPSSTQPRKSRLESLRQQAKMALFYFLDVKPAIAARRQQRQDDLISHLLDREYNDLEILTECLTYGTAGMVTTREFISVAAWHLLRNPGLRAEYVHGTEPERHAILHEILRLEPVVTMLYRRAEGELTVAGQTIPAGSLLALHLQEANTDPAVAGADAEQLCPGRTLPRGVAPQVLAFGDGHHRCPGAFLAIKESDVFLRRLLVWQDLEIVSEPEVNSNEVVKGYELRGFRVRLGRAARP | not soluble
3 | MGSDKIHHHHHHMTTTPFNRLLLTGAAGGLGKVLRERLKGYAEVLRLSDISPMAPAAGPHEEVITCDLADKAAVHTLVEGVDAIIHFGGVSTEHAFEEILGPNICGVFHVYEAARKHGVKRIIFASSNHTIGFYRQDERIDAHAPRRPDSYYGLSKCYGEDVASFYFDRYGIETVSIRIGSSFPQPQNLRMLCTWLSYDDLVQLIERGLFTPGVGHTIVYGASDNRTVWWDNRHAAHLGYVPKDSSETFRAAVEAQPAPAADDPSMVYQGGAFAVAGPFN | not soluble
4 | MGSDKIHHHHHHMTVADLVAGLRESRGFRHKTDIVDVVGSLAKRLPRGKRDLAQAVALGDDCAALADGDGYLLFAIEGMVSDFVSAMPWFAGYSSVMVNVSDIYAMGGRPLAVVDALWSQGIGAAEEVLAGMAAASVAYGVPIVGGHTNTRSEAAQLAVSIIGRARALLSSFNAKPGDSLMMAVDLRGRFEEPYPFWNASVDAPPERLRADLELLPQLAENGLCDAAKDISMAGTLGTALMLLECSQVGARIDLACIPKPEGVPLERWVSAFPSFGYLLSVRPEHVETVRAKFSARSLACSVIGSVDATSQVVLHRQDDAATLWDFQREPFIIGKDEVK | not soluble
5 | MGSDKIHHHHHHMTVGTLPIWSKTFSYAIRSLCFLHIIHMYAYEFTETRGESMLPTLSATNDYVHVLKNFQNGRGIKMGDCIVALKPTDPNHRICKRVTGMPGDLVLVDPSTIVNYVGDVLVDEERFGTYIKVPEGHVWVTGDNLSHSLDSRTYNALPMGLIMGKIVAANNFDKPFWDGSIRNIWGFKWINNTFLDVQAKSN | not soluble
6 | MGSDKIHHHHHHMTVHDRIVAEPFSLQRRNPAGGTKPLTSWGFANETDVLTDVLLGSPNFLRHLSTSSLSRKHLREAPCNVQIAQAQHKDLVAAYEHFGVNIHWHEPTPELPMQVYSRDSSVMTPYGAIITAMANWWRRGENYAAIRTYEKLGIPIYDMVTAGTFEGGDFNVIEDGVVLIGCGGARTQEEGARQVQAWFEKEGWETRIAFIDEYYVHIDLMVVPIAEKLTAVCLACTEPGIVDWLKGKGHEIIDVPFQDTMALGCNFMSLGKDRVIAPTSSQTLIGQLKARGFEVAAVDMSEISKTGGGIHCMAQALKREAA | not soluble
7 | MGSDKIHHHHHHMTVNDYALVTGASGFLGSAVVRQALARGWRVRALVRATSPRANLDGLPVEVFEGDMRDPAALTSAMRGVRYLFHVAADYRLWAPDPEEIVRTNVDGTMAVMEAAQEAGVERVVYTSSVATLRVAGASAPVDETAAMTPHEAIGAYKRSKVLAERVVERMVAERGLPAVIVNPSTPIGPRDVRPTPTGRIIVEAATGKIPAFVETGLNLVHVDDVAAGHFQALERGRIGERYILGGDDVMLQQMLRDIADLCGRRPPTVQLPRWPLYPLAHAAEAVARITRKEPFVTVDGLHMSKYRMFFRSDKARQELGYQPRPYIDGLRDALDWFREAGYLR | not soluble
8 | MGSDKIHHHHHHMVAMRIAIIGANGQLGTDLVEVFGNDPEFEVVPLTHKDLDVTIPESLKVLKEIKPDVLINTAAYVRVDDAELYPEKAFAVNAIGALNVARIANEIDAVNVYISTDYVFDGEKGEPYTEEDVPNPINVYGVSKYTGEIFTRNYSPKHYIIRVASLYGKAGASGKGGNFVEWVIEKAKHGEELKIVDDQFMSPTYTKDVARTLKEFLKLRSEFGVYHMVNEGFCSWYEFTEAIFDVLGWNVEIKPIKSNELNRLAKRPRFSALKNEKLEKIGLRMRHWREALEEYLKEKGYV | not soluble
9 | MGSDKIHHHHHHMVATLDDTKRNAIAVKLASIKALQQLVIENEQSLLREGLDAEIADRIRNFLKDDEKNLGVLETVIGQYGIQAEPKKNVTQFIEKARELFKGSELSLYEKVSQHELLKHQLVMSGLIVHKAAQKVGADVLLAIGPLNTINFENRAHQEQLKGILEILGVREFTGQDADQGIWARVQDAMAAVSGVVGSAVTQTSDKSDLNIQDVIRLDHNKVNTLFTELLQSDNPQKIQEYFGQIYKDLTAHAEAEEEVVYPRVRPFYGQDNTQELFDEQAEMKRVLEQIKAISPSSSEFKDRVRQLMEAVGDHIRQEESTMFAAIRNNLSSDQSEQLATEFKAAKTRIQEKLGVVSESNA | not soluble
10 | MGSDKIHHHHHHMVEMNFKVDAFEGPLDLLLHLIGQLEVDIYDIPMAEITDQYMEFVHTMQEMELDVASEYLVMAATLLAIKSKMLLPKQELEIDYDTLEEEEDPRDALVEKLMEYKRFKEAAKELKEKEAERSFYFSKPPMDLAEYDDGTKVAELDVSLNDMLSAFNKMLRRKKLNKPLHTRITTQEISIDQRMDSVLEKLNLQVNHRLRFDELFEEQTKEQLVVTFLALLELMKRKLVEVEQAESFADLYVQGKGEEIS | not soluble
11 | MGSDKIHHHHHHMVETKLIIRADDLGYSDAVNIGIERSVHKGIINNVGVMVNMPTTLDGLSMIRDTKVCLGLHVVISSGRPLLNPKFIPSIVDDDGAFLSSADYRKAPNDFVNLDEVILEIEAQYQKFIELVGRKPDYFEGHAVVSDNFFKGLLVVAKCHQLNLLQVTLNSGRPSLLFKGHSLHVFMESMNKDYNPYQTLKRAVLSSCDEEYPMMICHPGYLDDYLLKHSSLTTPRTKEVEMLTDPQVRAWLYQHQVRLIKYNEI | not soluble
12 | MGSDKIHHHHHHMVEVVGVRFREAGHIYYFAPGKSEYIYNEKVLVESQQSKQLATVAIPKKTVDSDDLPEDLKPILNKATANDLEKEQKNLADAEAAKSIANEKIRAHDLKMKLVRVEYTFDRSKMIFYFTADGRIDFRELVKDLAAIFRTRIELRQIGVRDEAKILGGIGPCGRQLCCSTFLGDFMPVSIKMAKDQGLSLNPVKISGLCGRLMCCLKYENDEYEAAKKELPDYGKEVITPDGKGKVVGLNLLSRIVKVRLHGREIAADYDYEEIKEATAKVAAEKGDQNG | not soluble
13 | MGSDKIHHHHHHMVIYMIGGSPCSGKSTIASLLARQYQLLHIKLDDLVDEMMSQASADSQPICLLRQDRNPEQIWMRNPKEMADEEWRFYEEIFPYVKSYLIKKDRPLLVEGAGLLPHLVKELEWPASSYLCLTPTADFQKKHYRQREWVSYVLEGTTNPEQAFENWMQRDILFAQMVRKEAMRLGYSSLMTDGSQSEKQTAEEIARLLKLYNINEIDIKGENT | not soluble
14 | MGSDKIHHHHHHMVNKFTQFLVAFISLWMLHSCSGPQKEYVLKVKLNKLTQKDMYEYNLVKDVIFDAQELNVDSIKARSRESFLKGVDEYKNKHNAAAAVPLFKQSILTFPDAKTYYELGNALMELNTEASLDESIKAYRVAEELDIKPIASVYYKMACAQNMIGTLKKSDEDEYMVISYLRKSFINGFYDTLTLAKDTRINSILSTMSYKTLLRELESFKYKEDRNGLFELFKQAYPRPVEFEAALTDLTQYENKESISYDFAVFVPEMQNTEFGREVSNDFFYNALVQETPAYTALIYTSVSFWGDHDALMPSFTSLVTYDPMGIIIDRKLIACQCSAEKVKTVKIKDNKVYVEDFKRIWKQPIDKVSFDDNEVDKFESLAKLTYTINEDGTIQASEIPANYMDTVITKDQSKNTPQ | not soluble
15 | MGSDKIHHHHHHMVNMNIIEIRSDKIYKKIMDAPINKKEDIYRYELMKPFEFKWKCMNVPIVARQKGGYDVIIASEMLGVLSPKDIDEKQKKNINVLSADKIWATCKETIENSINAFIKEGYDLNIKDYKYSILLANPNSPYTILSDGYWGDGGIPGYIFLSLVPNEYTINRLPVLIAHECNHNIRFQFIEWNNNITLEEMMINEGLAENFATWMFGEEMLGPWVSRTDIETLNTYIKPIIKSALKETGFQNITSYLYGDDIAKMQGYFPVGLPYCAGYACGYYMIKYYLEKTNKSIIEATLLPYSEIIEAVKEFWE | not soluble
16 | MGSDKIHHHHHHMVPMTRFDSATEVVRVGENRYAVELDPGYLIGTAMNGGYLMTVLQRSALAESDHLHAVSSSYHFHRPASSGPAEIETRVLKRGRTVTTVQTTLFQEGRTILTGTLATATLDPHAEPRYAAPQPAIPPQHQCRRVDPRQSHLPDDGFLARVDVDFSPDSYAALARERTVTTPELCGYVDLSARDGGSAKDPLAFLPLAVDALPPIVSLLVDWSWAPTVELTWHLRAIPEPGPLAFRSTCALVSDGWFDENVDLWDARGRLVAQSRQLARVGR | not soluble
17 | MGSDKIHHHHHHMVQSLKVILWGEEIGRLAWDARRRLSYFMYNPAFLKKGLNISPLAAPVDGARGLMPVWGEEAKIYQKLPAFLADSLPDSWGNQLFELWRQQNHLSNADITPLDKLSFIGKRGMGALEFLPEVSRERKAEKIDIKSLANLAERIFSERENARILPEESVTMQSLLTVGTSAGGRQPKAIVAINLKNGEVRSGQISGLEEFDYYLVKFGNSQYSSAELEMSYYELATMAGINMMPSKLYQVDGNNHFMTKRFDRNHGKKIHTQTLAAISPDADSYEQLITVCRKLHLPETDCYEVFRRMVFNVLANNTDDHNKNFSFVMSEDGTWRLSPAYDVTYIFDNGGFLPNEDHCMYIRAKLRNITREDVIQFAKDNGIRRPDAIIRDIVNAMKQFRTVATKYGVAEQWVGRVENTIVDRLKSWRELEEMAPEICELVINGHIIKNIRIEQAYKGNFHLLAEIDGHERKFIIGKNKEEFSLIESMGIANLSSNQLKDMVEKYFIHLKV | not soluble
18 | MGSDKIHHHHHHMVRVRFAPSPTGFLHVGGARTALFNFLFARKEKGKFILRIEDTDLERSEREYEEKLMESLRWLGLLWDEGPDVGGDHGPYRQSERVEIYREHAERLVKEGKAYYVYAYPEEIEEMREKLLSEGKAPHYSQEMFEKFDTPERRREYEEKGLRPAVFFKMPRKDYVLNDVVKGEVVFKTGAIGDFVIMRSNGLPTYNFACVVDDMLMEITHVIRGDDHLSNTLRQLALYEAFEKAPPVFAHVSTILGPDGKKLSKRHGATSVEAFRDMGYLPEALVNYLALLGWSHPEGKELLTLEELISSFSLDRLSPNPAIFDPQKLKWMNGYYLRNMPIEKLAELAKPFFEKAGIKIIDEEYFKKVLEITKERVEVLSEFPEESRFFFEDPAPVEIPEEMKEVFSQLKEELQNVRWTMEEITPVFKKVLKQHGVKPKEFYMTLRRVLTGREEGPELVNIIPLLGKEIFLRRIERSLGG | soluble
